Values of other authors as cited in publication PMC2562372.

Legend:
NRP1 (Homo sapiens) = NRP1 (Homo sapiens) (UniProt O14786)
VEGFR2 (Homo sapiens) = VEGFR2 (Homo sapiens) (UniProt P35968)
VEGFR1 (Homo sapiens) = VEGFR1 (Homo sapiens) (UniProt P17948)
Chain of UniProt P17948 (P17948 27-1338): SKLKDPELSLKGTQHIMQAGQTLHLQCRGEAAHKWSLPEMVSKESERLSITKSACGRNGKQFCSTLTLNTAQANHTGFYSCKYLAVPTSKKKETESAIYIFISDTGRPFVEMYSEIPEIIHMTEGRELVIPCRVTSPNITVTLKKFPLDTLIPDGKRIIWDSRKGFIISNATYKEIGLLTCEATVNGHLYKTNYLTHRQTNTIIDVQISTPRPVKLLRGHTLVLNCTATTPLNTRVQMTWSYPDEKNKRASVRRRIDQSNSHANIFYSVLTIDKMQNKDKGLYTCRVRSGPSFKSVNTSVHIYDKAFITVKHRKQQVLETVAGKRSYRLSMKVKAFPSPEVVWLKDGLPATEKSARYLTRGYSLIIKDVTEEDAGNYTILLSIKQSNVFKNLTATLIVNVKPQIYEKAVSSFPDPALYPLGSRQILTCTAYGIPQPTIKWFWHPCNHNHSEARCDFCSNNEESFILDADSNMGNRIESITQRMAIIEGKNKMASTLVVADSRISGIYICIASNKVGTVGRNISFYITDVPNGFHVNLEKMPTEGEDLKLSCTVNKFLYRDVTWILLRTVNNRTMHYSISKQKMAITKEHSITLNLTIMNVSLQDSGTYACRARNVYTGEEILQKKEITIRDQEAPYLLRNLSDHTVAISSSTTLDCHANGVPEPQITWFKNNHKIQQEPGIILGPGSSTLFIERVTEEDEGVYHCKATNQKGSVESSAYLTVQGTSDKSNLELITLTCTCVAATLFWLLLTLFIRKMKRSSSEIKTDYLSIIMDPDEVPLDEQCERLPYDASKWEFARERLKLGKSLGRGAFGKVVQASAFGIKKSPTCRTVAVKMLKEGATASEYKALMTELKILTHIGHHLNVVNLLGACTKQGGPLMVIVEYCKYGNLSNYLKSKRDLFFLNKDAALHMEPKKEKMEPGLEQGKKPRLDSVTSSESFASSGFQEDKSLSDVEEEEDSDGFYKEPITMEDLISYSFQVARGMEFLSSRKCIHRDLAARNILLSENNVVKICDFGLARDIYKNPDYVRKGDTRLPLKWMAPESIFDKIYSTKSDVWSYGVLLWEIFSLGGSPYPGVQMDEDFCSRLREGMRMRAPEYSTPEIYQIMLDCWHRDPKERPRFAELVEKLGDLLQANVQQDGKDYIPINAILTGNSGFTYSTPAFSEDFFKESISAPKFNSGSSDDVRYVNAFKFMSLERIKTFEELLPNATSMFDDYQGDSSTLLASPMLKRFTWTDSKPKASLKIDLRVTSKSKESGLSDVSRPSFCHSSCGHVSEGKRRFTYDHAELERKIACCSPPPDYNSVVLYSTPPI

Chain of UniProt P35968 (P35968 20-1356): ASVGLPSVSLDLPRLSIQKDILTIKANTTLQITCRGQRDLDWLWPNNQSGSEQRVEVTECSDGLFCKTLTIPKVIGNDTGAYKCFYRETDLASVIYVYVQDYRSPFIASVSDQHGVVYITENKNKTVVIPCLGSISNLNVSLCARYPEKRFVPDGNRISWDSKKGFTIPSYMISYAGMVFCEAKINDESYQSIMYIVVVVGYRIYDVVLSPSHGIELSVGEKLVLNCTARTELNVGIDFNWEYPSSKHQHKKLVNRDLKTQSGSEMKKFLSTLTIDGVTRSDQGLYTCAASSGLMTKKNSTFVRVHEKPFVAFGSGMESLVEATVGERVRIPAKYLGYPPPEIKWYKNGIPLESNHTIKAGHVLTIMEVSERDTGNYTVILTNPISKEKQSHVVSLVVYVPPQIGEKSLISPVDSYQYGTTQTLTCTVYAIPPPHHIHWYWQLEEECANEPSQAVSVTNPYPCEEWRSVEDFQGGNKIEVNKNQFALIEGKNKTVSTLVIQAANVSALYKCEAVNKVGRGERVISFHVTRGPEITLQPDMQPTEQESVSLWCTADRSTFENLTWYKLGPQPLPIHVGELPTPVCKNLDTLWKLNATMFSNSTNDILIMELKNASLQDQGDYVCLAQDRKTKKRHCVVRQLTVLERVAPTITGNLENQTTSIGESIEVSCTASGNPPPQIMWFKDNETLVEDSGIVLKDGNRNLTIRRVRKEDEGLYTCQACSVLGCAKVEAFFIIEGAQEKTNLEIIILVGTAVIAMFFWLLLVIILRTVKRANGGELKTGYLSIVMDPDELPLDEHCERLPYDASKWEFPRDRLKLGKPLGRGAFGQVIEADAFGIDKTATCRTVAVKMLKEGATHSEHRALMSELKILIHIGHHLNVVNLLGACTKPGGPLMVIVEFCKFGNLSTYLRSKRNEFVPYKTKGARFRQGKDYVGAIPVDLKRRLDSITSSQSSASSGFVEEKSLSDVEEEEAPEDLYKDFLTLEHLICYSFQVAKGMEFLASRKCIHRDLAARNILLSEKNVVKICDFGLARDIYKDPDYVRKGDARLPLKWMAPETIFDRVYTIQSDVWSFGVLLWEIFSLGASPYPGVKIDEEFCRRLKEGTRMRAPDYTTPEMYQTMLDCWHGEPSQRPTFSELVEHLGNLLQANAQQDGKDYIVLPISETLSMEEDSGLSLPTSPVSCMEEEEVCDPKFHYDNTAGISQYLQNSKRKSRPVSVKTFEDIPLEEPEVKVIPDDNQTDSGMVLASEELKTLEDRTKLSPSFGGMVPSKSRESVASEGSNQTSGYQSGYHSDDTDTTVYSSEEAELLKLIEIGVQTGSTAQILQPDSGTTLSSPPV
Chain of UniProt O14786 (O14786 22-923): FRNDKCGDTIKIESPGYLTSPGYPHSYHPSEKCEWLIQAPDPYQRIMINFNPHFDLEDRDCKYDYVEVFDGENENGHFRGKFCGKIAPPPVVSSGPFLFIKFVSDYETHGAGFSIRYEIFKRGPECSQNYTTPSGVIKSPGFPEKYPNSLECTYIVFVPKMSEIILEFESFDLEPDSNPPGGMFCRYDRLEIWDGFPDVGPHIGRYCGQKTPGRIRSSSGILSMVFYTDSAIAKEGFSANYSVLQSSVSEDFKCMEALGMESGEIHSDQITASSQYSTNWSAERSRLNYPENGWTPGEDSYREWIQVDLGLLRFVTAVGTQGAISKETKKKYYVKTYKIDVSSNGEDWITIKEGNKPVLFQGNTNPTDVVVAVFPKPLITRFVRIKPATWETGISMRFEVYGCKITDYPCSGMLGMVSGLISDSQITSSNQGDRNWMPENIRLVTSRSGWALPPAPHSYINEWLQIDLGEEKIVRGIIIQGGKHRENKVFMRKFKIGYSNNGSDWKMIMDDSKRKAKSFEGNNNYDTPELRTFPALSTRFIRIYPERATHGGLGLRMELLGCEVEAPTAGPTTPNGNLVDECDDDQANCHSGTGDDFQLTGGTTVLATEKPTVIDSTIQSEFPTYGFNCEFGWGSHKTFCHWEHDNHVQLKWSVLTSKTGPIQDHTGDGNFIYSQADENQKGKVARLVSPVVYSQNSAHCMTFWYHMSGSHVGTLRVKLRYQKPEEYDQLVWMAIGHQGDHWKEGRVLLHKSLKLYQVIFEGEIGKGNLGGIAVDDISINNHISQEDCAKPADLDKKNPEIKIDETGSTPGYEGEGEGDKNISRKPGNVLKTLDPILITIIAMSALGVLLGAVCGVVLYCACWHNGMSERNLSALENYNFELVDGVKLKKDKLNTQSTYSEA

Kd (NRP1 (Homo sapiens)) [nM]	Kd (VEGFR2 (Homo sapiens)) [nM]	Kd (VEGFR1 (Homo sapiens)) [nM]	Substance
0.312			VEGF165 (from UniProt P15692)
	0.1	0.033	VEGF (from UniProt P15692)
